In US8247352B2, “Method of inhibiting ethylene production in plants” (The Regents of the University of California, priority 2005, dated 2012):

What was measured:
Assay in all cases: Initial velocity assays (rate of oxygen consumption) with ACC or substrate analogs
Type in all cases: biochemical, Lycopersicon esculentum
Conditions in all cases: other: O2 consumption, 25° C., pH 7.2, [Ascorbate] = 30 mM, [O2] = 258 μM, [CO2/bicarbonate] = 20 mM
[1] = substrate: CC(C)(N)C(=O)O
Description: (§1) Initial velocities were measured by the rate of oxygen consumption at 25° C., pH 7.2, using a YSI model 5300 biological oxygen monitor as previously described (Thrower 2001) with minor modifications. Standard reaction mixture (1 ml) contained 100 mM MOPS, pH 7.2, 20 mM NaHCO3, 100 mM NaCl, 20 mM sodium ascorbate, 0.1 mg/ml BSA, and ACC or substrate analog at various concentrations. Oxygen concentrations were kept at atmospheric concentration and determined using the oxygen monitor that was calibrated with air saturated water (258 μM oxygen at 25° C.). Reactions were initiated with 2 μL ACCO reconstituted with equimolar Fe(NH4)2(SO4)2. Data from initial velocity experiments with varying substrate concentrations were fitted to the Michaelis-Menton equation using the program Kalideograph.
(§2) The dependence of the initial velocity of oxygen consumption by ACCO:Fe(II) on the concentration of ACC or several substrate analogs was determined (Table 1). Either cyclic substrate analogs (including inhibitor Me-ACC, ACC-NH2, or ACC-OMe) or acyclic substrate analogs (AIB, D-Ala, or Gly) were used. […] Ascorbate and oxygen concentrations were kept constant at 30 mM and ˜258 μM, respectively.

[2] = substrate: C[C@@H](N)C(=O)O
Description: as §1, §2

[3] = substrate: NC1(C(=O)O)CC1
Description: as §1, §2

B1: ACC Oxidase (ACCO, ACO1) (Solanum lycopersicum) (protein)
chain: MENFPIINLEKLNGDERANTMEMIKDACENWGFFELVNHGIPHEVMDTVEKMTKGHYKKCMEQRFKELVASKGLEAVQAEVTDLDWESTFFLRHLPTSNISQVPDLDEEYREVMRDFAKRLEKLAEELLDLLCENLGLEKGYLKNAFYGSKGPNFGTKVSNYPPCPKPDLIKGLRAHTDAGGIILLFQDDKVSGLQLLKDEQWIDVPPMRHSIVVNLGDQLEVITNGKYKSVLHRVIAQTDGTRMSLASFYNPGSDAVIYPAKTLVEKEAEESTQVYPKFVFDDYMKLYAGLKFQAKEPRFEAMKAMESDPIASA
notes: made in house; host or cells: Escherichia coli BL21 (DE3)pLysS
- Km [1]: 0.92 ± 0.29 mm
- kcat [1]: 0.368 ± 0.0267 s⁻¹
- Km [2]: 4.42 ± 0.49 mm
- kcat [2]: 0.497 ± 0.015 s⁻¹
- Km [3]: 0.099 ± 0.018 mm
- kcat [3]: 0.607 ± 0.0233 s⁻¹
